From patent publication US20060073152A1 (Genentech, published 2006)
No end group written: not given here.

Assays:
[1] = target: T1, rat serum albumin (rat, UniProt P02770 25-608); assay: phage binding
T1 construct: also called Rat SA; RSA

[2] = target: T2, human serum albumin (human, UniProt P02768 25-609); assay: phage binding
T2 construct: also called Human SA; HuSA

[3] = target: T3, rabbit serum albumin (rabbit, UniProt P49065 25-608); assay: phage binding
T3 construct: also called Rabbit SA; BuSA
T3 sequence (P49065 25-608 limits assumed): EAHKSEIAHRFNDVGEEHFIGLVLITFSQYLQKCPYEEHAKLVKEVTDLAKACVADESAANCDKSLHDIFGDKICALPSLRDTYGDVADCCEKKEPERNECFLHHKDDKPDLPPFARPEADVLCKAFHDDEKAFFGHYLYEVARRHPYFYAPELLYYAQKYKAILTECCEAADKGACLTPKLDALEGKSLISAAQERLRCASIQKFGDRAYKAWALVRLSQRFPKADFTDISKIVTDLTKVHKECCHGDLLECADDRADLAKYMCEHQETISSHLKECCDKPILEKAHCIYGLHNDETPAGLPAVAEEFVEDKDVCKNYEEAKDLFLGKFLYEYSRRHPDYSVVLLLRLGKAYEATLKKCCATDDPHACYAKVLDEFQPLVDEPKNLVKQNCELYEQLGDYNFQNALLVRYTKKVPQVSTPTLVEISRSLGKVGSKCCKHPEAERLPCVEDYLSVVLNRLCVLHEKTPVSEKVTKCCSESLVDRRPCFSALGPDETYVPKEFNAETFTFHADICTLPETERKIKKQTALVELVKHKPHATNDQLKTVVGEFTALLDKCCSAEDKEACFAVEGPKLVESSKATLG

[4] = target: T1, rat serum albumin; assay: peptide competition for albumin
[5] = target: T4, mouse serum albumin (mouse, UniProt P07724 25-608); assay: peptide competition for albumin
T4 construct: also called Mouse SA; MuSA
T4 sequence (P07724 25-608 limits assumed): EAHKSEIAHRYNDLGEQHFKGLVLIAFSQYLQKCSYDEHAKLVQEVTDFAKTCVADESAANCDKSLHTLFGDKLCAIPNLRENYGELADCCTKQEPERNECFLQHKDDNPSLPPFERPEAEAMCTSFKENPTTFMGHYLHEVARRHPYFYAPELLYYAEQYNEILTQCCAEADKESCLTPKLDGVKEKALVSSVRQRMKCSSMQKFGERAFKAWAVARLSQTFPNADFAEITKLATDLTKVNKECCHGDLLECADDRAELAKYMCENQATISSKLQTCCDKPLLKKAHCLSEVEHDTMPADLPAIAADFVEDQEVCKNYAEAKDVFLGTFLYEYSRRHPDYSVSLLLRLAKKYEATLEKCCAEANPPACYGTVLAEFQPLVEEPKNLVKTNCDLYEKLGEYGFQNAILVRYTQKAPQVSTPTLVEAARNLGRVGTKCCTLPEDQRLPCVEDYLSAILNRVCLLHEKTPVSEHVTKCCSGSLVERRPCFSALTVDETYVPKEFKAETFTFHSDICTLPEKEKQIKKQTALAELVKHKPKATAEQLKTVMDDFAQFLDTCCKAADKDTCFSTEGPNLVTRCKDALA

[6] = target: T3, rabbit serum albumin; assay: peptide competition for albumin
[7] = target: T4, mouse serum albumin; assay: SA08 peptide competition
[8] = target: T1, rat serum albumin; assay: SPR (BIAcore), albumin on the chip
[9] = target: T2, human serum albumin; assay: SPR (BIAcore), albumin on the chip
[10] = target: T3, rabbit serum albumin; assay: SPR (BIAcore), albumin on the chip
[11] = target: T3, rabbit serum albumin; assay: peptide competition; head prints RSA, read as rabbit
[12] = target: T3, rabbit serum albumin; assay: SA08 peptide competition

T1 sequence (P02770 25-608 limits assumed): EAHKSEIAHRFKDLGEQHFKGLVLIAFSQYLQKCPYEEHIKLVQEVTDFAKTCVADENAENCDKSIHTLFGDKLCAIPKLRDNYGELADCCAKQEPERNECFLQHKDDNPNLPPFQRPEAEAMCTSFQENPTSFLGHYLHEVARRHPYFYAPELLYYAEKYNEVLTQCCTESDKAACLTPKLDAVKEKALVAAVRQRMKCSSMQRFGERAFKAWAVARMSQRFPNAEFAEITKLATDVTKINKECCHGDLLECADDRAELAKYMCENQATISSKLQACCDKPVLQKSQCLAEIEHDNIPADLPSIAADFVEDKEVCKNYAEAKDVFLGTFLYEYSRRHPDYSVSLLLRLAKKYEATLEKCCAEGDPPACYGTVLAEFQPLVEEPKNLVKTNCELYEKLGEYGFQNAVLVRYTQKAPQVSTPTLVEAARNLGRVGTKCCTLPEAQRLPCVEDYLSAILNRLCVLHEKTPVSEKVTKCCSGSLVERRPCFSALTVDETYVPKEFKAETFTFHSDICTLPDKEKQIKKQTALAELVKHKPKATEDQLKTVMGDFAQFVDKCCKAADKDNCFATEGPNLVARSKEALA

## QRQMVDFCLPQWGCLWGDGF (on phage; also called Library RB) [RB]
[1]
  binding result: binds
[2]
  binding result: binds
[3]
  binding result: binds

## Ac-QGLIGDICLPRWGCLWGDSVK-NH2 (cysteine pairing not given here, free peptide) [SA08]
[4]
  IC50: 68 nM
[5]
  IC50: 10 nM
[6]
  IC50: 63 nM
[7]
  IC50: 12 nM
[8]
  Kd: 158 nM
[9]
  Kd: 858 nM
[10]
  Kd: 108 nM

## Ac-RLIEDICLPRWGCLWEDD-NH2 (cysteine pairing not given here, free peptide) [SA21]
[11]
  IC50: 270 nM
[7]
  IC50: 7 nM
[12]
  IC50: 270 nM
[10]
  Kd: 320 nM

B1: SA15 (peptide)
peptide: GEWWEDICLPRWGCLWEEED-NH2
modifications: not fully specified (bridges); printed as GEWWEDICLPRWGCLWEEED-NH2; cysteine pairing not given here
notes: free peptide
[7]
  IC50: 5 nM
[12]
  IC50: 13 nM
[8]
  Kd: 150 nM
[9]
  Kd: 878 nM
[10]
  Kd: 65 nM
